Test results: the supplement of paper PMC9112550, “Optimization of the antimicrobial peptide Bac7 by deep mutational scanning” (BMC Biology, 2022)

These sequences were tested on Escherichia coli TOP10 (assay: shrunken log2 fold change of peptide-encoding DNA abundance (4.5 h post-induction vs induction); higher = less antimicrobial activity (less host growth inhibition)). Details: time post-induction: 4.5 h; library: site-saturation at positions 5, 18, 19, 20.
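Note: peptides expressed intracellularly from a pBAD plasmid library in pooled LB shake-flask culture, induced with 0.3% L-arabinose, DNA abundance read by NGS, three biological replicates, DESeq2 with apeglm shrinkage.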

Row | Sequence | shrunken log2 fold change
1 | RRIRTRPPRLPRPRPRPWFTPRP | 0.00948
2 | RRIRQRPPRLPRPRPRPPQCPRP | 0.114
3 | RRIRRRPPRLPRPRPRPNYQPRP | -0.263
4 | RRIRRRPPRLPRPRPRPYWLPRP | -0.578
5 | RRIRLRPPRLPRPRPRPMRHPRP | 0.188
6 | RRIRQRPPRLPRPRPRPRVKPRP | 0.103
7 | RRIRPRPPRLPRPRPRPEPIPRP | 0.26
8 | RRIRDRPPRLPRPRPRPQINPRP | -0.0439
9 | RRIRLRPPRLPRPRPRPRSHPRP | 0.195
10 | RRIRARPPRLPRPRPRPYGFPRP | 0.00293
11 | RRIRPRPPRLPRPRPRPSILPRP | -0.0331
12 | RRIRFRPPRLPRPRPRPHIEPRP | -0.0641
13 | RRIRDRPPRLPRPRPRPHQRPRP | 0.0159
14 | RRIRWRPPRLPRPRPRPCVFPRP | 0.309
15 | RRIRGRPPRLPRPRPRPDMLPRP | 0.526
16 | RRIRQRPPRLPRPRPRPMNKPRP | -0.169
17 | RRIRFRPPRLPRPRPRPLYFPRP | -0.72
18 | RRIRCRPPRLPRPRPRPPLFPRP | 0.934
19 | RRIRDRPPRLPRPRPRPQFHPRP | -0.438
20 | RRIRQRPPRLPRPRPRPPEMPRP | -0.162
21 | RRIRMRPPRLPRPRPRPLRVPRP | 1.14
22 | RRIRLRPPRLPRPRPRPDGTPRP | 0.245
23 | RRIRERPPRLPRPRPRPRAAPRP | 0.448
24 | RRIRGRPPRLPRPRPRPKVPPRP | 0.447
25 | RRIRLRPPRLPRPRPRPQVNPRP | -0.141

Row | Sequence | shrunken log2 fold change
26 | RRIRPRPPRLPRPRPRPWCYPRP | -0.143
27 | RRIRHRPPRLPRPRPRPNGAPRP | -0.18
28 | RRIRYRPPRLPRPRPRPTQWPRP | 0.413
29 | RRIRVRPPRLPRPRPRPVDHPRP | -0.464
30 | RRIRKRPPRLPRPRPRPRIPPRP | 0.11
31 | RRIRFRPPRLPRPRPRPAWNPRP | 0.291
32 | RRIRARPPRLPRPRPRPGMFPRP | 0.295
33 | RRIRHRPPRLPRPRPRPHLCPRP | -0.0468
34 | RRIRYRPPRLPRPRPRPEQQPRP | -0.0122
35 | RRIRGRPPRLPRPRPRPMTRPRP | 0.519
36 | RRIRQRPPRLPRPRPRPRVCPRP | 0.303
37 | RRIRQRPPRLPRPRPRPMINPRP | -0.0423
38 | RRIRSRPPRLPRPRPRPYLTPRP | -0.429
39 | RRIRNRPPRLPRPRPRPNRPPRP | -0.0547
40 | RRIRKRPPRLPRPRPRPEAQPRP | 0.29
41 | RRIRYRPPRLPRPRPRPSCNPRP | -1.43
42 | RRIRDRPPRLPRPRPRPNHVPRP | -0.242
43 | RRIRKRPPRLPRPRPRPCVHPRP | -0.266
44 | RRIRMRPPRLPRPRPRPAQIPRP | -0.0435
45 | RRIRPRPPRLPRPRPRPNIDPRP | -0.468
46 | RRIRCRPPRLPRPRPRPGCIPRP | -0.385
47 | RRIRFRPPRLPRPRPRPRKSPRP | 0.123
48 | RRIRLRPPRLPRPRPRPRPEPRP | 0.799
49 | RRIRWRPPRLPRPRPRPQAEPRP | 0.0113
50 | RRIRPRPPRLPRPRPRPLDCPRP | 0.0595

Row | Sequence | shrunken log2 fold change
51 | RRIRKRPPRLPRPRPRPEALPRP | 1.67
52 | RRIRWRPPRLPRPRPRPDQIPRP | 0.134
53 | RRIRTRPPRLPRPRPRPSMMPRP | -0.0802
54 | RRIRGRPPRLPRPRPRPYAWPRP | 0.0018
55 | RRIRWRPPRLPRPRPRPWIGPRP | 0.0176
56 | RRIRQRPPRLPRPRPRPKTNPRP | -0.117
57 | RRIRKRPPRLPRPRPRPMTSPRP | 0.0716
58 | RRIRLRPPRLPRPRPRPHFDPRP | -0.212
59 | RRIRPRPPRLPRPRPRPTATPRP | 0.425
60 | RRIRLRPPRLPRPRPRPDTKPRP | -0.122
61 | RRIRFRPPRLPRPRPRPCSPPRP | -0.674
62 | RRIRFRPPRLPRPRPRPTGCPRP | 0.125
63 | RRIRGRPPRLPRPRPRPSTMPRP | 0.21
64 | RRIRTRPPRLPRPRPRPTDTPRP | -0.0527
65 | RRIRGRPPRLPRPRPRPMPCPRP | 0.104
66 | RRIRKRPPRLPRPRPRPDSFPRP | -0.115
67 | RRIRVRPPRLPRPRPRPLVIPRP | -0.429
68 | RRIRNRPPRLPRPRPRPGEQPRP | 0.137
69 | RRIRVRPPRLPRPRPRPYTRPRP | -0.0163
70 | RRIRVRPPRLPRPRPRPYQLPRP | -0.228
71 | RRIRCRPPRLPRPRPRPPNQPRP | 0.107
72 | RRIRDRPPRLPRPRPRPNDMPRP | -0.104
73 | RRIRWRPPRLPRPRPRPKMTPRP | 0.175
74 | RRIRLRPPRLPRPRPRPKTKPRP | -0.021
75 | RRIRKRPPRLPRPRPRPGVSPRP | 0.497

Row | Sequence | shrunken log2 fold change
76 | RRIRSRPPRLPRPRPRPMFTPRP | -0.374
77 | RRIRQRPPRLPRPRPRPPNDPRP | 0.0155
78 | RRIRHRPPRLPRPRPRPCPIPRP | -0.0539
79 | RRIRTRPPRLPRPRPRPSTDPRP | 0.201
80 | RRIRFRPPRLPRPRPRPPYLPRP | -0.465
81 | RRIRNRPPRLPRPRPRPVMTPRP | 0.0556
82 | RRIRPRPPRLPRPRPRPIFPPRP | 0.0704
83 | RRIRARPPRLPRPRPRPNMKPRP | -0.348
84 | RRIRKRPPRLPRPRPRPGINPRP | 0.369
85 | RRIRARPPRLPRPRPRPDKFPRP | -0.19
86 | RRIRCRPPRLPRPRPRPFGAPRP | 0.102
87 | RRIRVRPPRLPRPRPRPDPWPRP | 0.131
88 | RRIRVRPPRLPRPRPRPNRFPRP | 0.11
89 | RRIRQRPPRLPRPRPRPHHMPRP | -0.256
90 | RRIRQRPPRLPRPRPRPNLVPRP | 0.0528
91 | RRIRLRPPRLPRPRPRPHFMPRP | 0.0603
92 | RRIRGRPPRLPRPRPRPDCGPRP | 0.879
93 | RRIRERPPRLPRPRPRPGFKPRP | -0.324
94 | RRIRARPPRLPRPRPRPHEKPRP | 0.358
95 | RRIRCRPPRLPRPRPRPITEPRP | -0.206
96 | RRIRKRPPRLPRPRPRPDRGPRP | 0.0561
97 | RRIRERPPRLPRPRPRPRWTPRP | 0.0925
98 | RRIRIRPPRLPRPRPRPIAEPRP | -0.22
99 | RRIRKRPPRLPRPRPRPPKGPRP | 0.333
100 | RRIRSRPPRLPRPRPRPSPNPRP | 0.0503

Row | Sequence | shrunken log2 fold change
101 | RRIRRRPPRLPRPRPRPCRYPRP | -0.0616
102 | RRIRNRPPRLPRPRPRPGWPPRP | 0.541
103 | RRIRARPPRLPRPRPRPYCGPRP | -0.192
104 | RRIRPRPPRLPRPRPRPACEPRP | 0.0148
105 | RRIRNRPPRLPRPRPRPYYSPRP | -0.541
106 | RRIRERPPRLPRPRPRPPRWPRP | 0.508
107 | RRIRDRPPRLPRPRPRPWKFPRP | 0.0062
108 | RRIRLRPPRLPRPRPRPALRPRP | 0.178
109 | RRIRWRPPRLPRPRPRPPHSPRP | 0.218
110 | RRIRTRPPRLPRPRPRPRSWPRP | 0.532
111 | RRIRIRPPRLPRPRPRPQTHPRP | -0.412
112 | RRIRMRPPRLPRPRPRPFTCPRP | -0.173
113 | RRIRHRPPRLPRPRPRPQCRPRP | -0.0351
114 | RRIRSRPPRLPRPRPRPGNIPRP | -0.281
115 | RRIRDRPPRLPRPRPRPQMKPRP | -0.166
116 | RRIRSRPPRLPRPRPRPSPYPRP | -0.672
117 | RRIRCRPPRLPRPRPRPLQEPRP | 0.299
118 | RRIRKRPPRLPRPRPRPNHCPRP | 0.0144
119 | RRIRPRPPRLPRPRPRPTSGPRP | 0.173
120 | RRIRRRPPRLPRPRPRPIKHPRP | 0.0383
121 | RRIRHRPPRLPRPRPRPDPKPRP | 0.0039
122 | RRIRIRPPRLPRPRPRPAACPRP | 0.156
123 | RRIRNRPPRLPRPRPRPFMDPRP | 0.0237
124 | RRIRLRPPRLPRPRPRPWWQPRP | -0.179
125 | RRIRSRPPRLPRPRPRPDDNPRP | 0.00575

Row | Sequence | shrunken log2 fold change
126 | RRIRSRPPRLPRPRPRPEWLPRP | 0.625
127 | RRIRSRPPRLPRPRPRPYKNPRP | -0.399
128 | RRIRWRPPRLPRPRPRPWCNPRP | -0.0973
129 | RRIRKRPPRLPRPRPRPEHFPRP | 0.0394
130 | RRIRERPPRLPRPRPRPWKGPRP | -0.0443
131 | RRIRHRPPRLPRPRPRPNGRPRP | -9.3e-05
132 | RRIRVRPPRLPRPRPRPDEHPRP | 0.0107
133 | RRIRDRPPRLPRPRPRPSLMPRP | 0.175
134 | RRIRWRPPRLPRPRPRPRIMPRP | 0.12
135 | RRIRWRPPRLPRPRPRPGKEPRP | -0.0139
136 | RRIRIRPPRLPRPRPRPADCPRP | 0.035
137 | RRIRNRPPRLPRPRPRPYEPPRP | -0.0287
138 | RRIRCRPPRLPRPRPRPMAGPRP | -0.0712
139 | RRIRARPPRLPRPRPRPSVIPRP | -0.0459
140 | RRIRARPPRLPRPRPRPGIPPRP | 0.162
141 | RRIRMRPPRLPRPRPRPEKYPRP | 0.746
142 | RRIRLRPPRLPRPRPRPWNRPRP | -0.0226
143 | RRIRPRPPRLPRPRPRPTIYPRP | -0.413
144 | RRIRCRPPRLPRPRPRPIFSPRP | -0.0342
145 | RRIRQRPPRLPRPRPRPTSDPRP | -0.358
146 | RRIRCRPPRLPRPRPRPEFDPRP | -0.0199
147 | RRIRPRPPRLPRPRPRPVPCPRP | 0.0816
148 | RRIRHRPPRLPRPRPRPAAWPRP | 0.465
149 | RRIRLRPPRLPRPRPRPKWWPRP | 0.396
150 | RRIRYRPPRLPRPRPRPTCQPRP | -0.0443
